Laboratory results: patent US20140087995A1 (published 2014)
Numbered stars: 1 amine (or outer) side, 2 acyl side, 3 side chain; on linkers, the order of the positions; unused ones are H or OH. Bridge positions count the residues as written; N and C are the ends. Side chains are listed from the residue outwards. Ends that are not written are not given here. * marks the point of attachment. C20 diacid = O=C(O)CCCCCCCCCCCCCCCCCCC(=O)*; γGlu = O=C(O)[C@H](CCC(=O)[*:2])N[*:1]; AEEA = NCCOCCOCC(=O)O

Columns and labels:
[1] = biological target: T1, human amylin receptor (amylin 3(a) receptor: human calcitonin receptor co-expressed with RAMP-3) (human, UniProt P30988 25-474; O60896 24-148, limits assumed); test: cell-based or functional assay
T1 sequence (looked up) 1: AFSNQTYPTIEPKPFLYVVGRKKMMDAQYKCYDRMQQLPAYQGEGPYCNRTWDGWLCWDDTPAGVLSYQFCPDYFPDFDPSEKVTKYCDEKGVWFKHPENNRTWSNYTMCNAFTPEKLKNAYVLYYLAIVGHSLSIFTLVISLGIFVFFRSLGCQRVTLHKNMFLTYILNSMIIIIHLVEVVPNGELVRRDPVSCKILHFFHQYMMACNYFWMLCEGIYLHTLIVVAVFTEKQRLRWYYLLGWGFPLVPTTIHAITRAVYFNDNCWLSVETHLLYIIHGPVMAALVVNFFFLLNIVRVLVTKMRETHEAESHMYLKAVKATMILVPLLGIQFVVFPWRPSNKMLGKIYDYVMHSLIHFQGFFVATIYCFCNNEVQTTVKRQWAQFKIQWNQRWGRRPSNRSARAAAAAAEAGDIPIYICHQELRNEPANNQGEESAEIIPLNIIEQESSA
T1 sequence (looked up) 2: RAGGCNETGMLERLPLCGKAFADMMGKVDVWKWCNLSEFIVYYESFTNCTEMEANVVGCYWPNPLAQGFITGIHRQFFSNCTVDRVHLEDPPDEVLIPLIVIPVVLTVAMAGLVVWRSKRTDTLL

[2] = biological target: T2, human calcitonin receptor (human, UniProt P30988 25-474); test: cell-based or functional assay
T2 sequence (looked up): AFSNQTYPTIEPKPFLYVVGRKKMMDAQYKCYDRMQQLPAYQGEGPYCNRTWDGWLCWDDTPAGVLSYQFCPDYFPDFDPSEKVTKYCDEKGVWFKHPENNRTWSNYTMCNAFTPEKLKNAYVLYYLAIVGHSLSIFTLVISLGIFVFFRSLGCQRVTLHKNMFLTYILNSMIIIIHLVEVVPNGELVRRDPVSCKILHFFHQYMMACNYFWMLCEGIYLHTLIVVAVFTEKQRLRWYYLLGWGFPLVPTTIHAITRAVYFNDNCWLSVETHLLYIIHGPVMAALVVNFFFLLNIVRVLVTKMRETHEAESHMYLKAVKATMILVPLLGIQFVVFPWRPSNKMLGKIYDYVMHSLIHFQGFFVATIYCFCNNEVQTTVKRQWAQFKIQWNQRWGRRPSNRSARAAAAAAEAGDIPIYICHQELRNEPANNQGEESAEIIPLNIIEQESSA

[3] = biological target: T3, human calcitonin receptor (human, UniProt P30988 25-474); test: SPA competition binding, membranes with human calcitonin receptor, displacement of 125I-calcitonin (Assay VII)
T3 construct: whole, on cells; also called hCTR; hCT
T3 sequence (looked up): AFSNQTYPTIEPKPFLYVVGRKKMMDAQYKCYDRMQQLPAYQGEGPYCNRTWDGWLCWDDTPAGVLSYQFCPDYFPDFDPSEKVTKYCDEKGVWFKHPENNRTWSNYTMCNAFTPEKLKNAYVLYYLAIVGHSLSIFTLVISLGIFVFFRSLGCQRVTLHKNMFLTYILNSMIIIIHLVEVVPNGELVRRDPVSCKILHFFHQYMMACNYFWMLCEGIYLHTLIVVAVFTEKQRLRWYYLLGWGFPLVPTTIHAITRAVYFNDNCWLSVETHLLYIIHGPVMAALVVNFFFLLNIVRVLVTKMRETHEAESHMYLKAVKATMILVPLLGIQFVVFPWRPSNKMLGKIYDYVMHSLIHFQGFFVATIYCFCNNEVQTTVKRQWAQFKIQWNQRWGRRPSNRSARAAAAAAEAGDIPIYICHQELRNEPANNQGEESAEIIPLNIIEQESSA
Outline: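 BHK hCTR membranes 35 ng/μL + SPA beads 0.05 mg/well; buffer 50 mM Hepes pH 7.4, 1 mM CaCl2, 5 mM MgCl₂, 0.1% OA, 0.02% Tween20. 120 min, 25° C., shaking. Scintillation count; IC50 by one-site binding competition.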

[4] = biological target: T3, human calcitonin receptor; test: ratio of IC50 at hCTR to IC50 at the human amylin receptor (reference)
Outline: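 Competition binding by SPA with cell membranes (35 ng/μL) and SPA beads in 50 mM Hepes pH 7.4 with 1 mM CaCl2, 5 mM MgCl2, 0.1% OA and 0.02% Tween20. Incubated 120 min at 25 °C with shaking, then counted.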

B1: N^ε1-[2-[2-[2-[[(4S)-4-carboxy-4-(19-carboxynonadecanoylamino)butanoyl]amino]ethoxy]ethoxy]acetyl]-[His14,Arg17,Pro21,Pro27]-h-amylin (peptide)
peptide: K([AEEA-γGlu-C20 diacid])CNTATCATQRLAHFLRHSSPNFGAIPSSTNVGSNTY-NH2
modifications: disulfide 2-7; N-terminus assumed
SMILES: CC[C@H](C)[C@H](NC(=O)[C@H](C)NC(=O)CNC(=O)[C@H](Cc1ccccc1)NC(=O)[C@H](CC(N)=O)NC(=O)[C@@H]1CCCN1C(=O)[C@H](CO)NC(=O)[C@H](CO)NC(=O)[C@H](Cc1c[nH]cn1)NC(=O)[C@H](CCCNC(=N)N)NC(=O)[C@H](CC(C)C)NC(=O)[C@H](Cc1ccccc1)NC(=O)[C@H](Cc1c[nH]cn1)NC(=O)[C@H](C)NC(=O)[C@H](CC(C)C)NC(=O)[C@H](CCCNC(=N)N)NC(=O)[C@H](CCC(N)=O)NC(=O)[C@@H](NC(=O)[C@H](C)NC(=O)[C@@H]1CSSC[C@H](NC(=O)[C@@H](N)CCCCNC(=O)COCCOCCNC(=O)CC[C@H](NC(=O)CCCCCCCCCCCCCCCCCCC(=O)O)C(=O)O)C(=O)N[C@@H](CC(N)=O)C(=O)N[C@@H]([C@@H](C)O)C(=O)N[C@@H](C)C(=O)N[C@@H]([C@@H](C)O)C(=O)N1)[C@@H](C)O)C(=O)N1CCC[C@H]1C(=O)N[C@@H](CO)C(=O)N[C@@H](CO)C(=O)N[C@H](C(=O)N[C@@H](CC(N)=O)C(=O)N[C@H](C(=O)NCC(=O)N[C@@H](CO)C(=O)N[C@@H](CC(N)=O)C(=O)N[C@H](C(=O)N[C@@H](Cc1ccc(O)cc1)C(N)=O)[C@@H](C)O)C(C)C)[C@@H](C)O
notes: also called compound 69
[1]
  hAmylin-R funct. EC50: 94 pM
[2]
  hCTR funct. EC50: 1250 pM

B2: N^ε1-[2-[2-[2-(19-carboxynonadecanoylamino)ethoxy]ethoxy]acetyl]-[Arg17,Pro21,Pro27,His34]-h-amylin (peptide)
peptide: K([AEEA-C20 diacid])CNTATCATQRLANFLRHSSPNFGAIPSSTNVGHNTY-NH2
modifications: disulfide 2-7; N-terminus assumed
SMILES: CC[C@H](C)[C@H](NC(=O)[C@H](C)NC(=O)CNC(=O)[C@H](Cc1ccccc1)NC(=O)[C@H](CC(N)=O)NC(=O)[C@@H]1CCCN1C(=O)[C@H](CO)NC(=O)[C@H](CO)NC(=O)[C@H](Cc1c[nH]cn1)NC(=O)[C@H](CCCNC(=N)N)NC(=O)[C@H](CC(C)C)NC(=O)[C@H](Cc1ccccc1)NC(=O)[C@H](CC(N)=O)NC(=O)[C@H](C)NC(=O)[C@H](CC(C)C)NC(=O)[C@H](CCCNC(=N)N)NC(=O)[C@H](CCC(N)=O)NC(=O)[C@@H](NC(=O)[C@H](C)NC(=O)[C@@H]1CSSC[C@H](NC(=O)[C@@H](N)CCCCNC(=O)COCCOCCNC(=O)CCCCCCCCCCCCCCCCCCC(=O)O)C(=O)N[C@@H](CC(N)=O)C(=O)N[C@@H]([C@@H](C)O)C(=O)N[C@@H](C)C(=O)N[C@@H]([C@@H](C)O)C(=O)N1)[C@@H](C)O)C(=O)N1CCC[C@H]1C(=O)N[C@@H](CO)C(=O)N[C@@H](CO)C(=O)N[C@H](C(=O)N[C@@H](CC(N)=O)C(=O)N[C@H](C(=O)NCC(=O)N[C@@H](Cc1c[nH]cn1)C(=O)N[C@@H](CC(N)=O)C(=O)N[C@H](C(=O)N[C@@H](Cc1ccc(O)cc1)C(N)=O)[C@@H](C)O)C(C)C)[C@@H](C)O
notes: also called compound 91
[1]
  Ratio hCT/hAmylin funct.: 36.9
  hAmylin-R funct. EC50: 40 pM
[2]
  hCTR funct. EC50: 1480 pM

B3: N^ε1-[2-[2-[2-[[2-[2-[2-[[(4S)-4-carboxy-4-(19-carboxynonadecanoylamino)butanoyl]amino]ethoxy]ethoxy]acetyl]amino]ethoxy]ethoxy]acetyl]-[Arg17,Pro21,Pro27,Pro31 … (peptide)
peptide: K([AEEA-AEEA-γGlu-C20 diacid])CNTATCATQRLANFLRHSSPNFGAIPSSTPVGSNTY-NH2
modifications: disulfide 2-7; N-terminus assumed
SMILES: CC[C@H](C)[C@H](NC(=O)[C@H](C)NC(=O)CNC(=O)[C@H](Cc1ccccc1)NC(=O)[C@H](CC(N)=O)NC(=O)[C@@H]1CCCN1C(=O)[C@H](CO)NC(=O)[C@H](CO)NC(=O)[C@H](Cc1c[nH]cn1)NC(=O)[C@H](CCCNC(=N)N)NC(=O)[C@H](CC(C)C)NC(=O)[C@H](Cc1ccccc1)NC(=O)[C@H](CC(N)=O)NC(=O)[C@H](C)NC(=O)[C@H](CC(C)C)NC(=O)[C@H](CCCNC(=N)N)NC(=O)[C@H](CCC(N)=O)NC(=O)[C@@H](NC(=O)[C@H](C)NC(=O)[C@@H]1CSSC[C@H](NC(=O)[C@@H](N)CCCCNC(=O)COCCOCCNC(=O)COCCOCCNC(=O)CC[C@H](NC(=O)CCCCCCCCCCCCCCCCCCC(=O)O)C(=O)O)C(=O)N[C@@H](CC(N)=O)C(=O)N[C@@H]([C@@H](C)O)C(=O)N[C@@H](C)C(=O)N[C@@H]([C@@H](C)O)C(=O)N1)[C@@H](C)O)C(=O)N1CCC[C@H]1C(=O)N[C@@H](CO)C(=O)N[C@@H](CO)C(=O)N[C@H](C(=O)N1CCC[C@H]1C(=O)N[C@H](C(=O)NCC(=O)N[C@@H](CO)C(=O)N[C@@H](CC(N)=O)C(=O)N[C@H](C(=O)N[C@@H](Cc1ccc(O)cc1)C(N)=O)[C@@H](C)O)C(C)C)[C@@H](C)O
notes: also called compound 96
[1]
  hAmylin-R funct. EC50: 181 pM
[2]
  hCTR funct. EC50: 3800 pM

B4: N^ε1-[2-[2-[2-[[2-[2-[2-[[(4S)-4-carboxy-4-(19-carboxynonadecanoylamino)butanoyl]amino]ethoxy]ethoxy]acetyl]amino]ethoxy]ethoxy]acetyl]-[Arg17,Pro21,Pro27,Arg34 … (peptide)
peptide: K([AEEA-AEEA-γGlu-C20 diacid])CNTATCATQRLANFLRHSSPNFGAIPSSTNVGRNTY-NH2
modifications: disulfide 2-7; N-terminus assumed
SMILES: CC[C@H](C)[C@H](NC(=O)[C@H](C)NC(=O)CNC(=O)[C@H](Cc1ccccc1)NC(=O)[C@H](CC(N)=O)NC(=O)[C@@H]1CCCN1C(=O)[C@H](CO)NC(=O)[C@H](CO)NC(=O)[C@H](Cc1c[nH]cn1)NC(=O)[C@H](CCCNC(=N)N)NC(=O)[C@H](CC(C)C)NC(=O)[C@H](Cc1ccccc1)NC(=O)[C@H](CC(N)=O)NC(=O)[C@H](C)NC(=O)[C@H](CC(C)C)NC(=O)[C@H](CCCNC(=N)N)NC(=O)[C@H](CCC(N)=O)NC(=O)[C@@H](NC(=O)[C@H](C)NC(=O)[C@@H]1CSSC[C@H](NC(=O)[C@@H](N)CCCCNC(=O)COCCOCCNC(=O)COCCOCCNC(=O)CC[C@H](NC(=O)CCCCCCCCCCCCCCCCCCC(=O)O)C(=O)O)C(=O)N[C@@H](CC(N)=O)C(=O)N[C@@H]([C@@H](C)O)C(=O)N[C@@H](C)C(=O)N[C@@H]([C@@H](C)O)C(=O)N1)[C@@H](C)O)C(=O)N1CCC[C@H]1C(=O)N[C@@H](CO)C(=O)N[C@@H](CO)C(=O)N[C@H](C(=O)N[C@@H](CC(N)=O)C(=O)N[C@H](C(=O)NCC(=O)N[C@@H](CCCNC(=N)N)C(=O)N[C@@H](CC(N)=O)C(=O)N[C@H](C(=O)N[C@@H](Cc1ccc(O)cc1)C(N)=O)[C@@H](C)O)C(C)C)[C@@H](C)O
notes: also called compound 95
[1]
  hAmylin-R funct. EC50: 651 pM
[2]
  hCTR funct. EC50: 21500 pM

B5: N^ε-[2-[2-[2-[[(4S)-4-carboxy-4-(19-carboxynonadecanoylamino)butanoyl]amino]ethoxy]ethoxy]acetyl]Lys[Arg1,Arg17,Pro21,Pro27,His35]-h-amylin (peptide)
peptide: K([AEEA-γGlu-C20 diacid])RCNTATCATQRLANFLRHSSPNFGAIPSSTNVGSHTY-NH2
modifications: disulfide 3-8; N-terminus assumed
SMILES: CC[C@H](C)[C@H](NC(=O)[C@H](C)NC(=O)CNC(=O)[C@H](Cc1ccccc1)NC(=O)[C@H](CC(N)=O)NC(=O)[C@@H]1CCCN1C(=O)[C@H](CO)NC(=O)[C@H](CO)NC(=O)[C@H](Cc1c[nH]cn1)NC(=O)[C@H](CCCNC(=N)N)NC(=O)[C@H](CC(C)C)NC(=O)[C@H](Cc1ccccc1)NC(=O)[C@H](CC(N)=O)NC(=O)[C@H](C)NC(=O)[C@H](CC(C)C)NC(=O)[C@H](CCCNC(=N)N)NC(=O)[C@H](CCC(N)=O)NC(=O)[C@@H](NC(=O)[C@H](C)NC(=O)[C@@H]1CSSC[C@H](NC(=O)[C@H](CCCNC(=N)N)NC(=O)[C@@H](N)CCCCNC(=O)COCCOCCNC(=O)CC[C@H](NC(=O)CCCCCCCCCCCCCCCCCCC(=O)O)C(=O)O)C(=O)N[C@@H](CC(N)=O)C(=O)N[C@@H]([C@@H](C)O)C(=O)N[C@@H](C)C(=O)N[C@@H]([C@@H](C)O)C(=O)N1)[C@@H](C)O)C(=O)N1CCC[C@H]1C(=O)N[C@@H](CO)C(=O)N[C@@H](CO)C(=O)N[C@H](C(=O)N[C@@H](CC(N)=O)C(=O)N[C@H](C(=O)NCC(=O)N[C@@H](CO)C(=O)N[C@@H](Cc1c[nH]cn1)C(=O)N[C@H](C(=O)N[C@@H](Cc1ccc(O)cc1)C(N)=O)[C@@H](C)O)C(C)C)[C@@H](C)O
notes: extended by one residue at the N-terminus; also called compound 45
[3]
  IC50: 14.8 nM
[4]
  Ratio hCT/hAmylin binding: 26.8
